Legend:
[1] = molecular target: F protein of MPV I-PV-03/01-6621 (A1, Pavia IT, 2001; A1/6621/01) (MPV (I-PV-03/01-6621)); assay: cell-based or functional assay
[2] = molecular target: F protein of RSV 9727/2009 (B, Pavia IT, 2009; B/9727/09) (RSV (9727/2009)); assay: cell-based or functional assay
[3] = molecular target: F protein of RSV 9736/2009 (B, Pavia IT, 2009; B/9736/09) (RSV (9736/2009)); assay: cell-based or functional assay
[4] = molecular target: F protein of RSV 9847/2009 (B, Pavia IT, 2009; B/9847/09) (RSV (9847/2009)); assay: cell-based or functional assay
[5] = molecular target: F protein of RSV A/9835/09 (RSV (A/9835/09)); assay: cell-based or functional assay
[6] = molecular target: F protein of RSV A/9846/09 (RSV (A/9846/09)); assay: cell-based or functional assay
[7] = molecular target: F protein of RSV Randall (A, Chicago US, 1958; A/Randall/58) (RSV (strain Randall)); assay: cell-based or functional assay
[8] = molecular target: stabilized form of the full-length pre-fusion RSV F protein (RSV); assay: surface plasmon resonance

In the case of Palivizumab (antibody), the IC50 (ng/ml), microneutralization [1] is reported as > 20000 ng/mL, the Neutralization IC50 [2] is reported as 0.275 µg/mL and the Neutralization IC50 [3] is reported as 0.092 µg/mL. It also gave a Neutralization IC50 [4] of 0.209 µg/mL, a Neutralization IC50 [5] of 0.284 µg/mL and a Neutralization IC50 [6] of 0.283 µg/mL. The Neutralization IC50 [7] was 0.44 µg/mL and the Kd [8] was 2 nM.
